The target of assay [1] is monkey DLL3 on CHO K1-cyno DLL3 cells (cynomolgus monkey DLL3 extracellular segment joined to EpCAM transmembrane and intracellular regions) (cynomolgus monkey). The assay is described as follows: FACS, CHO K1-cyno DLL3 cells, 0.032 nM antibody. A general note: In flow cytometry, cells or beads pass a laser one at a time.
For assay [2], the target named is human DLL3 endogenously expressed on SHP77 and NCI-H82 cells (human) (UniProt Q9NYJ7). The assay can be described thus: FACS SHP77 cells, 0.0064 nM.
human DLL3 endogenously expressed on SHP77 and NCI-H82 cells (human), sequence (Q9NYJ7 27-618): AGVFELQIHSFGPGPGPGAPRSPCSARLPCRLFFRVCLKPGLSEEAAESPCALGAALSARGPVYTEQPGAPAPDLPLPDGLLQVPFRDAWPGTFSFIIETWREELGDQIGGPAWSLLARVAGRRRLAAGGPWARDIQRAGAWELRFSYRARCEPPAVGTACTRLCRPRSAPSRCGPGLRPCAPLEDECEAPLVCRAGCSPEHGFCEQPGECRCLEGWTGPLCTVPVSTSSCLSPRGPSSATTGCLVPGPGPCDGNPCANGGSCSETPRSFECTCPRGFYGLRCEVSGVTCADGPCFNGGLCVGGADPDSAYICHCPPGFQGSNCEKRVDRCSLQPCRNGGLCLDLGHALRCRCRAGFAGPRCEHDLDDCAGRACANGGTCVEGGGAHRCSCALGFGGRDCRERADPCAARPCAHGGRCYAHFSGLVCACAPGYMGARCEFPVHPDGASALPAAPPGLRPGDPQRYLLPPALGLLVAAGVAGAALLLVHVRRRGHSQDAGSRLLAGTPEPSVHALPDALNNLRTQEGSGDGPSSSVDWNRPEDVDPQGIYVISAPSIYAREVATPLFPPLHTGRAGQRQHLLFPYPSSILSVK
Assay [3] shares this target. The assay is described as follows: FACS SHP77 cells, 4 nM.
Assay [4] concerns the target monkey DLL3 on CHO K1-cyno DLL3 cells (cynomolgus monkey DLL3 extracellular segment joined to EpCAM transmembrane and intracellular regions) (cynomolgus monkey). The assay is described as follows: FACS, CHO K1-cyno DLL3 cells, 20 nM antibody.
Assay [5] has as its target human DLL3 endogenously expressed on SHP77 and NCI-H82 cells (human) (UniProt Q9NYJ7). The assay is described as follows: FACS SHP77 cells, 20 nM.
For assay [6] the target is unchanged. The assay can be described thus: FACS SHP77 cells, 100 nM.
For assay [7] the target is unchanged. The assay can be described thus: FACS SHP77 cells, 0.8 nM.
The target of assay [8] is monkey DLL3 on CHO K1-cyno DLL3 cells (cynomolgus monkey DLL3 extracellular segment joined to EpCAM transmembrane and intracellular regions) (cynomolgus monkey). The assay is described as follows: FACS, CHO K1-cyno DLL3 cells, 0.8 nM antibody.
For assay [9] the target is unchanged. The assay is described as follows: FACS, CHO K1-cyno DLL3 cells, 0.0064 nM antibody.
Assay [10] shares this target. The assay can be described thus: FACS, CHO K1-cyno DLL3 cells, 100 nM antibody.
Assay [11] shares this target. The assay can be described thus: FACS, CHO K1-cyno DLL3 cells, 4 nM antibody.
The target of assay [12] is human DLL3 endogenously expressed on SHP77 and NCI-H82 cells (human) (UniProt Q9NYJ7). The assay is described as follows: FACS SHP77 cells, 0.16 nM.
The target is the same in assay [13]. The assay can be described thus: FACS SHP77 cells, 0.032 nM.
Assay [14] concerns the target monkey DLL3 on CHO K1-cyno DLL3 cells (cynomolgus monkey DLL3 extracellular segment joined to EpCAM transmembrane and intracellular regions) (cynomolgus monkey). The assay can be described thus: FACS, CHO K1-cyno DLL3 cells, 0.00128 nM antibody.
Assay [15] addresses human DLL3 endogenously expressed on SHP77 and NCI-H82 cells (human) (UniProt Q9NYJ7). The assay can be described thus: FACS SHP77 cells, 0.00128 nM.
Assay [16] addresses monkey DLL3 on CHO K1-cyno DLL3 cells (cynomolgus monkey DLL3 extracellular segment joined to EpCAM transmembrane and intracellular regions) (cynomolgus monkey). The assay is described as follows: FACS, CHO K1-cyno DLL3 cells, 0.16 nM antibody.
Assay [17] has as its target human DLL1 protein (human) (UniProt O00548). The assay can be described thus: ELISA, maximum over 0.1-100 nM. In general terms: In an ELISA, binding on a coated surface is turned into a signal by an enzyme label.
Assay [18] deals with human DLL4 protein (human) (UniProt Q9NR61). The assay can be described thus: ELISA, maximum over 0.1-100 nM.
human DLL4 protein (human), sequence (Q9NR61 27-524 limits assumed): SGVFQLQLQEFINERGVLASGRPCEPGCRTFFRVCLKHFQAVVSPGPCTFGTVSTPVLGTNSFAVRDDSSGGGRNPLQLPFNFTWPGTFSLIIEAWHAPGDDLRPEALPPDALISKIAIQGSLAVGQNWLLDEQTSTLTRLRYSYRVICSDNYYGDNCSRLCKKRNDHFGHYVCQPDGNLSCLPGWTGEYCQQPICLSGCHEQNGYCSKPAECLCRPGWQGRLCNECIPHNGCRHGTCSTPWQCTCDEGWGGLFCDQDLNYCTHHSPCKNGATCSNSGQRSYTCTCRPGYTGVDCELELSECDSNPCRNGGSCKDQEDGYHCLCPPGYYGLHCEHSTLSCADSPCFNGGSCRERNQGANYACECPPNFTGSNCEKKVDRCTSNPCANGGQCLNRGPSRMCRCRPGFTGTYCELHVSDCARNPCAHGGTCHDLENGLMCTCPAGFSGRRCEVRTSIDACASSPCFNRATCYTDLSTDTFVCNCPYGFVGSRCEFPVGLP
Assay [19] addresses DLL3 endogenously expressed on NCI-H82 cells (UniProt Q9NYJ7). The assay can be described thus: FACS on NCI-H82 cells; antibody 0.032 nM.
In assay [20] the target is human DLL3 protein expressed on CHO-K1 recombinant cells (human DLL3 extracellular segment fused to EpCAM transmembrane and intracellular regions) (human) (UniProt Q9NYJ7). The assay can be described thus: FACS, CHO-K1 hDLL3 cells, 100 nM antibody.
human DLL3 protein expressed on CHO-K1 recombinant cells (human DLL3 extracellular segment fused to EpCAM transmembrane and intracellular regions) (human), sequence (Q9NYJ7 other isoform, or with tags, fused parts or gaps limits assumed): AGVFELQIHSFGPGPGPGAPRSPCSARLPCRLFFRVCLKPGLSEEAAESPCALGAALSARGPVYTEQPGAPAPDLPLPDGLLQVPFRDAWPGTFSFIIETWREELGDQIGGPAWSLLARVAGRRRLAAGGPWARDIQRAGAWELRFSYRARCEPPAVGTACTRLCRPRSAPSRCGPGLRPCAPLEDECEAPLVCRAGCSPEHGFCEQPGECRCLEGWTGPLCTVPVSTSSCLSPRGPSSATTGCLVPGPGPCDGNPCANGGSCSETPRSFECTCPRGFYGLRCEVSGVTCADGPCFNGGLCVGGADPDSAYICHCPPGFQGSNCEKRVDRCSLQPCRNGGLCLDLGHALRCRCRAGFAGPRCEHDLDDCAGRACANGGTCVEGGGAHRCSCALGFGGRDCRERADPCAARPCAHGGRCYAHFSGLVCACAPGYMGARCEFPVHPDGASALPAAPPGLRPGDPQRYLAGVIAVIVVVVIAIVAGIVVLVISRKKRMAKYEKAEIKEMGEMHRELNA
Assay [21] concerns the target human DLL1 protein (Acro, Cat. No. DL1-H52H8) (human) (UniProt O00548). The assay is described as follows: ELISA, coated hDLL1; maximum over 0.1, 1, 10, 100 nM antibody.
Assay [22] deals with DLL3 endogenously expressed on NCI-H82 cells (UniProt Q9NYJ7). The assay is described as follows: FACS on NCI-H82 cells; antibody 0.16 nM.
DLL3 endogenously expressed on NCI-H82 cells, sequence (Q9NYJ7 27-618): as the sequence (Q9NYJ7 27-618) above
Assay [23] shares this target. The assay can be described thus: FACS on NCI-H82 cells; antibody 20 nM.
Assay [24] shares this target. The assay can be described thus: FACS on NCI-H82 cells; antibody 0.8 nM.
The target in assay [25] is human DLL4 protein (Acro, Cat. No. DL4-H5227) (human) (UniProt Q9NR61). The assay can be described thus: ELISA, coated hDLL4; maximum over 0.1, 1, 10, 100 nM antibody.
human DLL4 protein (Acro, Cat. No. DL4-H5227) (human), sequence (Q9NR61 27-524 limits assumed): as the sequence (Q9NR61 27-524 limits assumed) above
The target in assay [26] is human DLL3 protein expressed on CHO-K1 recombinant cells (human DLL3 extracellular segment fused to EpCAM transmembrane and intracellular regions) (human) (UniProt Q9NYJ7). The assay is described as follows: FACS, CHO-K1 hDLL3 cells, 20 nM antibody.
For assay [27], the target named is DLL3 endogenously expressed on NCI-H82 cells (UniProt Q9NYJ7). The assay is described as follows: FACS on NCI-H82 cells; antibody 100 nM.
Assay [28] has the same target. The assay is described as follows: FACS on NCI-H82 cells; antibody 4 nM.
Assay [29] has the same target. The assay can be described thus: FACS on NCI-H82 cells; antibody 0.0064 nM.
For assay [30], the target named is human delta-like ligand 3 (DLL3) on SHP77 cells (human) (UniProt Q9NYJ7). The assay is described as follows: FACS on SHP77 cells.
human delta-like ligand 3 (DLL3) on SHP77 cells (human), sequence (Q9NYJ7 27-618, stated change not applied): as the sequence (Q9NYJ7 27-618) above
The target in assay [31] is human DLL3 protein expressed on CHO-K1 recombinant cells (human DLL3 extracellular segment fused to EpCAM transmembrane and intracellular regions) (human) (UniProt Q9NYJ7). The assay can be described thus: FACS, CHO-K1 hDLL3 cells, 0.0064 nM antibody.
The target is the same in assay [32]. The assay can be described thus: FACS, CHO-K1 hDLL3 cells, 0.16 nM antibody.
Assay [33] addresses DLL3 endogenously expressed on NCI-H82 cells (UniProt Q9NYJ7). The assay is described as follows: FACS on NCI-H82 cells; antibody 0.00128 nM.
Assay [34] deals with human DLL3 protein expressed on CHO-K1 recombinant cells (human DLL3 extracellular segment fused to EpCAM transmembrane and intracellular regions) (human) (UniProt Q9NYJ7). The assay can be described thus: FACS, CHO-K1 hDLL3 cells, 0.032 nM antibody.
Assay [35] has the same target. The assay is described as follows: FACS, CHO-K1 hDLL3 cells, 0.8 nM antibody.
For assay [36] the target is unchanged. The assay can be described thus: FACS, CHO-K1 hDLL3 cells, 0.00128 nM antibody.
Assay [37] shares this target. The assay can be described thus: FACS, CHO-K1 hDLL3 cells, 4 nM antibody.

Several values for one entry are separate records, joined by “and”; a condition that tells them apart may be missing. Identical values can stand only once.

monkey DLL3 on CHO K1-cyno DLL3 cells (cynomolgus monkey DLL3 extracellular segment joined to EpCAM transmembrane and intracellular regions) (cynomolgus monkey), sequence (chain, as listed by the source limits assumed): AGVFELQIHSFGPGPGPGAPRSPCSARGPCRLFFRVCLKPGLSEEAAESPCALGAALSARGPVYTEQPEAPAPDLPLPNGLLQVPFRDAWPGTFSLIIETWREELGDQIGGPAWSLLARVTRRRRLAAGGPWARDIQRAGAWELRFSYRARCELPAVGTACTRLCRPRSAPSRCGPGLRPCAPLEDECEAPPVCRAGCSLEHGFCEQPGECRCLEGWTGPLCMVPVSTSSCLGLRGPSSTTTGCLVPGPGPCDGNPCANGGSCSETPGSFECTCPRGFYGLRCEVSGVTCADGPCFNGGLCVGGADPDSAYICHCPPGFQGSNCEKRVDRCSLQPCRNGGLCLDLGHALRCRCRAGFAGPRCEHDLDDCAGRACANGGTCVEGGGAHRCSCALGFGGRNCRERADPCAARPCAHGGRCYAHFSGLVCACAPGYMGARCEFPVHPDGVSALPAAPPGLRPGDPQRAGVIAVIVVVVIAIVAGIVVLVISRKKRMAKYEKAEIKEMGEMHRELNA
human DLL1 protein (human), sequence (O00548 18-540 limits assumed): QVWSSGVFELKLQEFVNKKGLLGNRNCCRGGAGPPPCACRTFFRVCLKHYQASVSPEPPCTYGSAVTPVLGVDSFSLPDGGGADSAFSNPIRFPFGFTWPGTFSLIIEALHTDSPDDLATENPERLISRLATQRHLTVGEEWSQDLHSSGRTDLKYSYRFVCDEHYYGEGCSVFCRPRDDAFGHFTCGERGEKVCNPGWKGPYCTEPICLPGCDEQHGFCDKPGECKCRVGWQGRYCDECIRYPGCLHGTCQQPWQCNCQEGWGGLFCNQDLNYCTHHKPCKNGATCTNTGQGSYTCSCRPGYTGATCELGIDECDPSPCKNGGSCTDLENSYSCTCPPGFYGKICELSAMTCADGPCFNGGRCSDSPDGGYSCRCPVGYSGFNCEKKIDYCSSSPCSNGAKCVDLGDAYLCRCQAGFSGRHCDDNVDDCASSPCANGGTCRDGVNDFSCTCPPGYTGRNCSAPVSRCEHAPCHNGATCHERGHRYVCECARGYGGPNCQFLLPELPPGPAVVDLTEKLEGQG
human DLL1 protein (Acro, Cat. No. DL1-H52H8) (human), sequence (O00548 18-540 limits assumed): as above

B1: mab003 scFv-hFc (Fc fusion, part only; not given: VL-VH linker and human IgG1 Fc, not shown: another chain or arm of the molecule; a dimerising Fc or GST; small tags and cut ends)
VL: DVQITQSPSYLAASPGETITINCRASKSISKYLAWYQEKPGKTNKLLIYSGSTLHSGIPSRFSGSGSGTDFTLTISSLEPEDFAIYYCQQHNEYPLTFGGGTKLELK
VH: QVQLQQSGTELMKPGASVKLSCKATGYTFTGNWIEWVKQRPGHGLEWIGEILPGTGSTQYNEKFKGKATFTADPSSNTAYMQLSSLTTEDSAIYYCARWGSTVVAYDYWGQGTTLTVSS
B1: the MFI in assay [1] stood at 566 MFI; in [2], 197 MFI; in [3], 789 MFI; in [4], 8420 MFI; in [5], 1280 MFI; in assay [6], 976 MFI. The MFI worked out at 732 MFI in assay [7]; 5570 MFI in [8]; 243 MFI in assay [9]; 10600 MFI in [10]; 7470 MFI in [11]; 566 MFI in [12]. The MFI was 351 MFI in assay [13], 163 MFI in assay [14], 182 MFI in assay [15] and 1820 MFI in assay [16].

B2: mab010 scFv-hFc (Fc fusion, not shown: small tags and cut ends; a dimerising Fc or GST)
scFv (part 1 of 2): DIQMTQSPASLSVSVGETVTITCRASENINSNLAWYQQKQGKSPQLLVYAATNLADGVPSRFSGSGSGTQFSLKISGLQSEDFGSYYCQHFWGLPWTFGGGTKLEIR
scFv (part 2 of 2): QVQLQQSGAELARPGASMKLSCKASGYTFTSYGISWVKQITGQGLEWIGEIFPRSGNTYDNENFRGKATLTADKSSSTAYLEVRSLTSEDSAVYFCARTTVFAPYYFDYWGQGTTLTVSS
Consider B2, for which the MFI in assay [2] stood at 161 MFI; in [3] it was 707 MFI; in assay [5], 855 MFI; in assay [6] it was 1140 MFI; in assay [7], 619 MFI; in [12] it was 523 MFI. The MFI in assay [13] came out at 278 MFI; in assay [15] it was 113 MFI. The results for the Emax of OD450 nm binding value in assay [17] and in [18] were 1.16 OD450 and 0.06 OD450, respectively.

B3: BI3 (antibody, human IgG1, kappa, V domains shown)
VH: QVQLVQSGAEVKKPGASVKVSCKASGYTFTSYYVHWVRQAPGQGLEWMVIINPGGGTTSYAQKFLGRVTMTRDTSTNTVYMELKSLRSEDTAVYYCARGEAVTGNYFYYGMDVWGQGTTVTVSS
VL: DIQMTQSPSAMSASVGDRVTITCRASQGISNYLVWFQQKPGKAPKRLIYAVSSLYSGVPSRFSGSGSGTEFTLTISSLQPEDFATYYCLQHDSYPYTFGQGTKLEIKR
Consider B3, for which the MFI in [19] was found to be 155; in [20], 13200 MFI; in assay [22], 256; in assay [23], 882; in [24] it was 518; in assay [26], 13400 MFI. Also, the MFI in assay [27] worked out at 1010; in assay [28] it was 795; in [29], 121; in assay [31], 452 MFI; in assay [32], 2660 MFI; in [33] it was 112. The MFI came to 924 MFI in assay [34], 7770 MFI in [35], 310 MFI in assay [36] and 12600 MFI in assay [37]. Moreover, the Emax of OD450 nm binding value in assay [21] is 0.14 OD450 nm; in [25], 0.06 OD450 nm; in assay [17] it was 0.05 OD450 and 0.07 OD450; in [18], 0.05 OD450 and 0.04 OD450. This molecule showed an MFI at 0.00128 nM in assay [30] of 101 MFI. Besides, the MFI at 0.0064 nM in assay [30] was 105 MFI. The molecule further had an MFI at 0.032 nM in assay [30] of 110 MFI. This molecule displayed an MFI at 0.16 nM in [30] of 148 MFI. This molecule showed an MFI at 0.8 nM in assay [30] of 252 MFI. In [30], this molecule showed an MFI at 4 nM of 498 MFI. The molecule further displayed an MFI at 20 nM in [30] of 807 MFI. Moreover, the MFI at 100 nM in assay [30] stood at 967 MFI.

The values above are taken from patent EP4786492A1.
